The results in this text go back to US20070059284A1.

This experiment concerns the target Human IL-21 Receptor (human) (UniProt Q9HBE5). In words: cell-based or functional assay.

With “human IL-21-saporin immunotoxin conjugate (from UniProt P20656 25-277)”, the 3H-thymidine incorporation of conjugate-treated MOLT-13 cells relative to IL-21 treated MOLT-13 cells worked out at 70%, the density of conjugate-treated DEL cells relative to untreated cells (3H-thymidine) stood at 25%, the density of conjugate-treated HuT-78 cells relative to untreated cells (3H-thymidine) is 33% and the density of conjugate-treated HuT-102 cells relative to untreated cells (3H-thymidine) stood at 20%. The density of conjugate-treated YT cells relative to untreated cells (3H-thymidine) turned out to be 33%; the growth inhibition of IM-9 cells at the maximal conjugate concentration (250 ng/ml), Alamar Blue proliferation assay amounted to 79%; the growth inhibition of RAMOS cells at the maximal conjugate concentration (250 ng/ml), Alamar Blue proliferation assay came to 65%.
